Our source for the Kd values is publication doi:10.1101/2024.08.06.606809.

pKd: −log10 of the molar value.

Among the targets are Protein G variant GD; Protein G variant GF; Protein G variant GLM.
What all share (assay): SPR
On the technique in general: In SPR one partner is held on a chip, and binding of the other changes the refractive index at the surface.

For test [1], the target named is Protein G-Fc (Fc specific Protein-G variant).

As usually defined, the pKd is −log10 of the Kd, conventionally taken in molar units. Low values mean a high Kd, high ones a low Kd. “Fab^H, wild-type human (Herceptin) Fab scaffold with a kappa light chain”: the pKd with Protein G variant GD was 8.19; with Protein G variant GF it was 8.72; with Protein G variant GLM, 8.05.

In test [1], “human Fc (Fc domain of IgG) (domain or fragment)” gave a pKd of 8.42.
